In paper PMC4922016, “Loss of flotillin expression results in weakened desmosomal adhesion and Pemphigus vulgaris-like localisation of desmoglein-3 in human keratinocytes” (Scientific Reports, 2016):
Blank lines part the entries; values can stand above or below the binder they belong to.

What was measured:
[1] = biological target: T1, GST fusion of the cytoplasmic domain of human desmoglein-3 (human, UniProt P32926 641-999); test: pull-down; GST-tagged cytoplasmic domains of Dsg1-3 immobilised on glutathione sepharose, HaCaT lysate (1 mg), overnight at 4 °C; 10 mM Tris-HCl pH 8.0, 150 mM NaCl, 5 mM EDTA, 0.5% Triton X-100, 60 mM N-octylglucoside; Western blot; GST as negative control; conditions: one partner purified
T1 construct: cytoplasmic domain of human desmoglein-3, cloned by PCR from HaCaT cells into pGEX-4T1; worked out from the printed primers: the forward primer begins with the codons for LTCDCGA, the reverse primer holds the stop codon (ends DPCSRLI-stop); also called Dsg3 tail; cytoplasmic tail of Dsg3; source: E. coli Rosetta (DE3) pLysS, purified (glutathione sepharose)
T1 sequence (looked up): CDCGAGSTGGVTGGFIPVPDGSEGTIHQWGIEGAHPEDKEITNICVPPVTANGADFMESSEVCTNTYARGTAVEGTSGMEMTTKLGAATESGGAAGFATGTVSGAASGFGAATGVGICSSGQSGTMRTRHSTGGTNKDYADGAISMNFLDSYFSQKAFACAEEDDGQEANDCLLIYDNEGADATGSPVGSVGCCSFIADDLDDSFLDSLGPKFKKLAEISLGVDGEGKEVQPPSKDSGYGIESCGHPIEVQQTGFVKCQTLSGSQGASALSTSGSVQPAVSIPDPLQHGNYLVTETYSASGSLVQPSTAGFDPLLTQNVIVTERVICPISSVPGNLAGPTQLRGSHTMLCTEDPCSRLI

[2] = biological target: T2, flotillin-1-GST fusion (rat, full length) (rat, UniProt Q9Z1E1 1-428); test: pull-down; Dsg3-MBP (5 μg) immobilised on amylose resin, eluted flotillin-GST proteins in solution; 50 mM Tris-HCl pH 7.5, 150 mM NaCl, 0.01% Triton X-100, 1 mM DTT, 1 mM EDTA, 1% BSA, on ice 2-3 h; Western blot; MBP and GST as controls; conditions: both partners purified
T2 construct: full length rat flotillin-1 in the pET41a vector; pET41a may add further tags (His, S-tag) besides GST (surmised); also called Flot-GST; flotillin-GST; source: E. coli Rosetta (DE3) pLysS, purified (glutathione sepharose, eluted with reduced glutathione)
T2 sequence (looked up): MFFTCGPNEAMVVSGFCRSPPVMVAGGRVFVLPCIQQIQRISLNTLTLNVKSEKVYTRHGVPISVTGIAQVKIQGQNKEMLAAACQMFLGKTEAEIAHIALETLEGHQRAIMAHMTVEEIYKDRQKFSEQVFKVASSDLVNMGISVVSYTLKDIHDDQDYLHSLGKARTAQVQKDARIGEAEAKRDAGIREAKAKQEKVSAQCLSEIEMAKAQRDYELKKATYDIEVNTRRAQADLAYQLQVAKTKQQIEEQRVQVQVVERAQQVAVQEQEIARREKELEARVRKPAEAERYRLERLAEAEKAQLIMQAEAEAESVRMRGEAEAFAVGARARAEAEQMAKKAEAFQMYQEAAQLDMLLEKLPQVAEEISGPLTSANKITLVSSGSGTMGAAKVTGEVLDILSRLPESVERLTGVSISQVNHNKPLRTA

relative amount pulled down (normalised to the fusion protein), against the Dsg1 and Dsg2 pulldowns [1]: ~2 fold
B1: flotillin-2 (natural protein, human (endogenous in HaCaT), UniProt Q14254 1-428, looked up)
chain: MGNCHTVGPNEALVVSGGCCGSDYKQYVFGGWAWAWWCISDTQRISLEIMTLQPRCEDVETAEGVALTVTGVAQVKIMTEKELLAVACEQFLGKNVQDIKNVVLQTLEGHLRSILGTLTVEQIYQDRDQFAKLVREVAAPDVGRMGIEILSFTIKDVYDKVDYLSSLGKTQTAVVQRDADIGVAEAERDAGIREAECKKEMLDVKFMADTKIADSKRAFELQKSAFSEEVNIKTAEAQLAYELQGAREQQKIRQEEIEIEVVQRKKQIAVEAQEILRTDKELIATVRRPAEAEAHRIQQIAEGEKVKQVLLAQAEAEKIRKIGEAEAAVIEAMGKAEAERMKLKAEAYQKYGDAAKMALVLEALPQIAAKIAAPLTKVDEIVVLSGDNSKVTSEVNRLLAELPASVHALTGVDLSKIPLIKKATGVQV
notes: flotillin-2, endogenous in human HaCaT keratinocytes; also called Flot-2; source: endogenous, HaCaT lysate

binding result [2]: binds
B2: Dsg3-MBP fusion protein (domain or fragment, human, UniProt P32926 641-999, looked up)
chain: T1 sequence (looked up)
notes: cytoplasmic domain of human desmoglein-3, cloned by PCR from HaCaT cells into pMAL-c2X; worked out from the printed primers: the forward primer begins with the codons for LTCDCGA, the reverse primer holds the stop codon (ends DPCSRLI-stop); source: E. coli Rosetta (DE3) pLysS, purified (amylose resin)

relative amount pulled down (normalised to the fusion protein), against the Dsg1 and Dsg2 pulldowns [1]: ~2 fold
B3: flotillin-1 (natural protein, human (endogenous in HaCaT), UniProt O75955 1-427, looked up)
chain: MFFTCGPNEAMVVSGFCRSPPVMVAGGRVFVLPCIQQIQRISLNTLTLNVKSEKVYTRHGVPISVTGIAQVKIQGQNKEMLAAACQMFLGKTEAEIAHIALETLEGHQRAIMAHMTVEEIYKDRQKFSEQVFKVASSDLVNMGISVVSYTLKDIHDDQDYLHSLGKARTAQVQKDARIGEAEAKRDAGIREAKAKQEKVSAQYLSEIEMAKAQRDYELKKAAYDIEVNTRRAQADLAYQLQVAKTKQQIEEQRVQVQVVERAQQVAVQEQEIARREKELEARVRKPAEAERYKLERLAEAEKSQLIMQAEAEAASVRMRGEAEAFAIGARARAEAEQMAKKAEAFQLYQEAAQLDMLLEKLPQVAEEISGPLTSANKITLVSSGSGTMGAAKVTGEVLDILTRLPESVERLTGVSISQVNHKPLRTA
notes: flotillin-1, endogenous in human HaCaT keratinocytes; also called Flot-1; source: endogenous, HaCaT lysate
